Data from PMC8591454 (Frontiers in Microbiology, 2021).

Biological target: T1, truncated capsid protein sar239 from genotype 1 HEV Sar55 strain (hepatitis E virus genotype 1, strain …, UniProt P33426 368-606)
T1 sequence: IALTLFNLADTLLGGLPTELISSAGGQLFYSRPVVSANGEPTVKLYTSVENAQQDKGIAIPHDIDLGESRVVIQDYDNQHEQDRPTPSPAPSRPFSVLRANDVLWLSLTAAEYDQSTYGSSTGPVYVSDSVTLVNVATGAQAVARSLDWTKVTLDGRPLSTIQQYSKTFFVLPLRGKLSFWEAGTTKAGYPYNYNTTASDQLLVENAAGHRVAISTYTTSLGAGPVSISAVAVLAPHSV
Assay: ELISA
Conditions: both partners purified

B1: His-tagged cell division control protein 42 (CDC42-His) (natural protein)
chain: not shown
notes: also called recombinant CDC42-His protein
  binding result: binds
